Target: T1, 人CD40 (BJAB细胞) (human, UniProt P25942 21-277)
T1 construct: whole, on cells; On the surface of BJAB cells in FACS and in the functional assays; also called 细胞膜表面的CD40; 人CD40分子
Test: Western blot, hybridoma supernatant as primary antibody, HRP anti-mouse IgG secondary

T1 sequence (P25942 21-277): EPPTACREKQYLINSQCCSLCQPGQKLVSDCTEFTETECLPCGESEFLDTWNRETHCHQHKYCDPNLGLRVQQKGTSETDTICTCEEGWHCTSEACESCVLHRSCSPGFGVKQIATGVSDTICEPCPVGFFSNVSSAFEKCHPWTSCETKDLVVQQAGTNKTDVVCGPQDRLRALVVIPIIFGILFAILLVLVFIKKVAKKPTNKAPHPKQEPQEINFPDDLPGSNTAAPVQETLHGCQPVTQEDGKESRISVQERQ

B1: CD40单克隆抗体 No.3 (antibody, V domains shown)
VH: EVQLQQSGPELVKPGASVKIVCKASGYTFTDYNMDWVKQSHGKSLEWIGDINPKNGGIIYNQKFKGKATLTVDKSSSTAYMELRSLTSEDTAVYYCVRRFAYWGQGTTVTVSS
VL: DIELTQSPTTMAASPGEKITITCSASSSISSNYLHWYQQKPGFSPKLLIYRTSNLAYGVPARFSGSGSGTSYSLTIGTMEAEDVATYYCQQGSSIPYTFGGGTKLEIKR
notes: Mouse hybridoma antibody, tested as culture supernatant
B1: binds.
